Molecular target: human CD40 on cells (HEK293 stable transfectants, HEK-Blue CD40 cells, human B cells, monocytic cells, dendritic cells) (human) (UniProt P25942)
Test: cell-based or functional assay

Sequence of human CD40 on cells (HEK293 stable transfectants, HEK-Blue CD40 cells, human B cells, monocytic cells, dendritic cells) (human) (P25942 21-277 limits assumed): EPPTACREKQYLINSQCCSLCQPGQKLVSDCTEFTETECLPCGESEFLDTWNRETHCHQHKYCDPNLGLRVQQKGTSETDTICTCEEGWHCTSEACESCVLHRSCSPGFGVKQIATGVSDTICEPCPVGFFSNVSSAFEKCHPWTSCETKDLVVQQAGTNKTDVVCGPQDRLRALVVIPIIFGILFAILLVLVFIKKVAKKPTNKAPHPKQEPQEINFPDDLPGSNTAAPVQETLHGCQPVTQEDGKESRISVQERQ

Substance: anti-human CD40 G28-5 (mouse IgG1) (Biolegend) (antibody)
- Monocyte activation (THP1-Xblue, OD655): 0.12 OD655
- moDC activation (IL-12p70): 139 pg/mL
